In test [1] the target is T1, FcγRIIB (CD32B) on Daudi cells (human, UniProt P31994 43-310).
T1 construct: whole, on cells; also called human B cell tumor line
T1 sequence (looked up): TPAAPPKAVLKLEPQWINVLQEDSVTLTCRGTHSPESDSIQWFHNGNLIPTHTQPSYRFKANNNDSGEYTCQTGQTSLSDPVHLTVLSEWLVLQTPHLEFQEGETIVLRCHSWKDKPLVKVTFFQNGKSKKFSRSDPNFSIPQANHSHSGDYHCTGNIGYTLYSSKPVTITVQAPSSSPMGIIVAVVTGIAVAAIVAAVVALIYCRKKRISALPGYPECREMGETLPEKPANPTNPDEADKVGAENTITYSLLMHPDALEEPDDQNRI
Nature of the test: FACS on Daudi cells, primary antibody 0.5 ug/ml, PE anti-human IgG Fc secondary.

Test [2] concerns the target T1, FcγRIIB (CD32B) on Daudi cells. Briefly: FACS on Daudi cells, primary antibody 0.5 µg/ml, PE anti-human IgG Fc secondary. Here is the method:
(§1) Protocol for FACS analysis. Approximately 10⁶ Daudi cells were used for each antibody staining. Cells were washed once with PBS. Primary antibodies (Ch2B6, Hu2B6Hc/ch2B6Lc, human IgG1) were diluted into 0.5, 0.1, 0.02 μg/mL in PBS/1% BSA and 100 μL of diluted antibodies was transferred to the cells. After 30 mins incubation at 4° C., cells were washed once with 1 mL PBS/1% BSA. PE conjugated F(ab′)₂ fragment of goat anti human IgG Fc specific (Jackson ImmunoReseach, Inc.) was used as secondary antibody at 1:1000 dilution. After 30 mins incubation at 4° C., cells were washed once with 1 mL PBS/1% BSA. The cells were then resuspended in 500 μL of PBS/1% BSA and subjected to be FACS analysis.
(§2) Transfections of HEK-293 cells were performed using the following combinations: hu2B6HC/hu2B6LC; hu2B6HC/hu2B6LC(N50Y); hu2B6HC/hu2B6LC(N50Y,V51A); ch2B6HC/ch2B6LC. After three days in culture the amount of human IgG expressed was quantitated by an ELISA assay, using the method described above. Binding to dimeric soluble FcγRIIb-Fc was determined by ELISA assay. […] FACS analysis was then performed to measure the binding of the mAbs to Daudi cells (Table 8).

For test [3] the target is unchanged. Nature of the test: FACS on Daudi cells, primary antibody 0.02 µg/ml, PE anti-human IgG Fc secondary. As to the method:
as §1, §2

The target is the same in test [4]. Briefly: FACS on Daudi cells, primary antibody 0.1 ug/ml, PE anti-human IgG Fc secondary.
The target is the same in test [5]. Nature of the test: FACS on Daudi cells, primary antibody 0.02 ug/ml, PE anti-human IgG Fc secondary.
For test [6] the target is unchanged. Nature of the test: FACS on Daudi cells, primary antibody 0.1 µg/ml, PE anti-human IgG Fc secondary. As to the method: as §1, §2
Test [7] has as its target T2, soluble FcγIIA (UniProt P12318 34-217).
T2 construct: also called dimeric soluble FcγRIIa-Fc; FcγRIIA; not shown: the p
T2 sequence (looked up): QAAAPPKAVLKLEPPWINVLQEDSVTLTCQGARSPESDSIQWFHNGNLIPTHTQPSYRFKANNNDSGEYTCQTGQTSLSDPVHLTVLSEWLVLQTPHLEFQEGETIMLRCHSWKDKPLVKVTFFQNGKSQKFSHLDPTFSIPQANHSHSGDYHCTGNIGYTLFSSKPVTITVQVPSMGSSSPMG
Briefly: ELISA, 100 ng/well soluble FcγIIA coated. Here is the method:
Protocol for ELISA assay: 100 ng/well of soluble FcγIIA in carbonate buffer was coated on 96-well Maxisorp plates at 4° C. overnight. A serial of two-fold dilution of conditioned medium of Ch2B6; hu2B6HC/hu2B6LC; hu2B6HC/hu2B6LC(N50Y); hu2B6HC/hu2B6LC(N50Y,V51A); and purified IV.3 starting from 25 ng/well was added to the each well. The plate was incubated at room temperature for 1 hour. The binding was detected by HRP conjugated F(ab′)2 goat anti human IgG F(ab′)2 specific secondary antibody for Ch2B6 and all hu2B6 samples and HRP conjugated F(ab′)2 goat anti mouse IgG (H+L) secondary antibody for IV.3. After incubation with the secondary antibody for approximately 45 minutes, the plate was developed using a TMB substrate. After 5 mins incubation, the reaction was stopped by 1% H₂SO₄. The OD₄₅₀ nm was ready by SOFTmax program. Between each step, the plates were washed 3 times with PBS/0.1% Tween 20. The plates were blocked by 0.5% BSA in PBS/0.1% Tween 20 for 30 mins at room temperature before adding the serial diluted antibodies.

Here are results for five molecules from patent US20080044417A1 (MacroGenics, published 2008).

Positions count from the first letter of the chain named. Numbers in names are those of the source.

As for Human IgG1 (antibody), the Mean Fluorescence stood at 6.07 in test [1], 9.49 in test [2] and 1.23 in test [2] (record 2).

On to “ch2B6 monoclonal antibody (ch2B6HC/ch2B6LC)”, for which the Mean Fluorescence in test [3] was found to be 45.6; in test [3] (record 2) it was 173; in test [4] it was 515; in test [1] it was 552; in test [5], 168; in test [2], 193. Also, the Mean Fluorescence in test [2] (record 2) came out at 647; in test [6] it was 141; in test [6] (record 2), 512.

B1: hu2B6HC/hu2B6LC(N50Y) (antibody, V domains shown)
VH: QVQLVQSGAEVKKPGASVKVSCKASGYTFTNYWIHWVRQAPGQGLEWMGVIDPSDTYPNYNKKFKGRVTMTTDTSTSTAYMELRSLRSDDTAVYYCARNGDSDYYSGMDYWGQGTTVTVSS
VL: EIVLTQSPDFQSVTPKEKVTITCRTSQSIGTNIHWYQQKPDQSPKLLIKYVSESISGVPSRFSGSGSGTDFTLTINSLEAEDAATYYCQQSNTWPFTFGGGTKVEIK
notes: Human IgG; HEK-293 conditioned medium; also called Hu2B6 N50Y; Hu2B6N50Y
As for B1, the “Mean Fluorescence” value in test [3] was 40.1; in test [2], 191; in test [6], 135. For the same molecule, in test [7], the binding result was “no binding”.

B2: hu2B6HC/hu2B6LC monoclonal antibody (antibody, V domains shown)
VH: B1 VH
VL: B1 VL with Y50N
notes: Human IgG (appropriate constant region segments); HEK-293 conditioned medium; also called humanized 2B6
Turning to B2, the entries for the “Mean Fluorescence” value in test [3], in test [2] and in test [6] were 58.6, 202 and 174, respectively. For the same molecule, the binding result in test [7] is “no binding”.

B3: hu2B6HC/hu2B6LC(N50Y,V51A) (antibody, V domains shown)
VH: B1 VH
VL: B1 VL with V51A
notes: Human IgG; HEK-293 conditioned medium; also called Hu2B6N50Y, V51A; Hu2B6N50Y,V51A
Consider B3, for which the “Mean Fluorescence” value in test [3] was 46; in test [2], 167; in test [6] it was 134. Also, in test [7], the binding result is “no binding”.
